Measurements: US20200199244A1 (published 2020)

T1: Macaca fascicularis CD40 (Macaca fascicularis (cynomolgus monkey), UniProt P25942 21-277 (human entry))
T1 chain: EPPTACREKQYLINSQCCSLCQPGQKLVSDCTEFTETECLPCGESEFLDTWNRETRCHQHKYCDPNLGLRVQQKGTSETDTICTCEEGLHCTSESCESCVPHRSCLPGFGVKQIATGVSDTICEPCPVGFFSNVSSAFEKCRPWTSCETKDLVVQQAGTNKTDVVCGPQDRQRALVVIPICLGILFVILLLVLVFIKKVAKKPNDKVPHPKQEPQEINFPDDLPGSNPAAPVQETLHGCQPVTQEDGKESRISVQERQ


Target: T1, Macaca fascicularis CD40
Test: cell-based or functional assay

Row | Binder | hIZCD40L-driven Cyno B Cell Proliferation EC50
1 | BMS3h-193-25 (other) VL: DIQMTQSPSSLSASVGDRVTITCRASQTIERRLNWYQQKPGKAPRLLIYLATRLQSGVPSRFSGSGSGTDFTLTISSLQPEDFATYYCHQYESPPLTFGQGTKVEIKR | 2200 nM
2 | BMS3h-198 (other) VH: EVQLLESGGGLVQPGGSLRLSCAASGFTFAGYEMWWVRQAPGKGLERVSAISGSGGSTYYADSVKGRFTISRDDSKNTLYLQMNSLRAEDTAVYYCAKDPYSFDYWGQGTLVTVSS | > 7000 nM
3 | BMS3h-202 (other) VH: EVQLLESGGGLVQPGGSLRLSCAASGFTFPTAEMVWVRQAPGKGLEWVSSISASGGSTYYADSVKGRFTISRDNSKNTLYLQMNSLRAEDTAVYYCAKEPVSYVATFDYWGQGTLVTVSS | > 7000 nM
4 | BMS3h-202-1 (other) VH: EVQLLESGGGLVQPGGSLRLSCAASGFTFPTAEMLWVRKAPGKGLEWVSSISASGGSTYYADSVKGRFTISRDNSKNTLYLQMNSLRAEDTAVYYCAKEPVSYVATFDYWGQGTLVTVSS | > 7000 nM

Continued, values first:

Row | hIZCD40L-driven Cyno B Cell Proliferation EC50 | Binder
5 | > 7000 nM | BMS3h-274 (other) VH: EVQLLESGGGLVQPGGSLRLSCAASGFTFDSYAMGWARQAPGKGLEWVSAIGAKGLSTYYADSVKGRFTISRDNSKNTLYLQMNSLRAEDTAVYYCAKAARGKFDYWGQGTLVTVSS
6 | 27 nM | BMS3h-217-4 (other) VL: DIQMTQSPSSLSASVGDRVTITCRASHFIATLLSWYQQKPGKAPKLLITYGSLLQSGVPSRFSGSGSGTDFTLTISSLQPEDFATYYCGQGVLWPPTFGQGTKVEIKR
7 | 35 nM | BMS3h-217-1 (other) VL: NIQMTQSPSSLSASVGDRVTITCRASHFIGTLLTWYQHKPGKAPKLLITYGSLLQSGVPSRFSGSGSGTDFTLTISSLQPEDFATYYCGQGVLWPATFGQGTKVEIKR
8 | 15 nM | BMS3h-217-5 (other) VL: DIQMTQSPSFLSASVGDRVTITCRASHFIATLLSWYQQKPGKAPKLLITYGSLLQSGVPSRFSGSGSGTDFTLTISSLQPEDFATYYCGQGVLWPPTFGQGTKVEIKR

target: human CD40 (human, UniProt P25942 21-277); test: cell-based or functional assay

Row | Binder | hIZCD40L-driven Human B Cell Proliferation EC50 | CHO-hCD40L-driven DC Activation IL-12 EC50
9 | BMS3h-193-25 (other) VL: DIQMTQSPSSLSASVGDRVTITCRASQTIERRLNWYQQKPGKAPRLLIYLATRLQSGVPSRFSGSGSGTDFTLTISSLQPEDFATYYCHQYESPPLTFGQGTKVEIKR | 303 nM | –
10 | BMS3h-198 (other) VH: EVQLLESGGGLVQPGGSLRLSCAASGFTFAGYEMWWVRQAPGKGLERVSAISGSGGSTYYADSVKGRFTISRDDSKNTLYLQMNSLRAEDTAVYYCAKDPYSFDYWGQGTLVTVSS | 554 nM | –
11 | BMS3h-202 (other) VH: EVQLLESGGGLVQPGGSLRLSCAASGFTFPTAEMVWVRQAPGKGLEWVSSISASGGSTYYADSVKGRFTISRDNSKNTLYLQMNSLRAEDTAVYYCAKEPVSYVATFDYWGQGTLVTVSS | 6400 nM | –
12 | BMS3h-202-1 (other) VH: EVQLLESGGGLVQPGGSLRLSCAASGFTFPTAEMLWVRKAPGKGLEWVSSISASGGSTYYADSVKGRFTISRDNSKNTLYLQMNSLRAEDTAVYYCAKEPVSYVATFDYWGQGTLVTVSS | 192 nM | –
13 | BMS3h-202-5 (other) VH: EVQLLESGGGLVQPGGSLRLSCAASGFTFPTAEMLWVRQAPGKGLEWVSSISASGGSTYYADSVKGRFTISRDNSKNTLYLQMNSLRAEDTAVYYCAKEPVSYVATFDYWGQGTLVTVSS | 6500 nM | –
14 | BMS3h-202-10 (other) VH: EVQLLESGGGLVQPGGSLRLSCAASGFTFPTAEMLWVRQAPGKGLEWVSSISASGGSTYYADSVKGRFTISRDNSKNTLYLQMNSLRAEDTAVYYCAKEPVYYVATFDYWGQGTLVTVSS | 289 nM | –
15 | BMS3h-202-11 (other) VH: EVQLLESGGGLVQPGGSLRLSCAASGFTFPTAEMLWVRKAPGKGLEWVSSISASGGSTYYADSVKGRFTISRDNSKNTLYLQMNSLRAEDAAVYYCAKEPVSYVATFDYWGQGTLVTVSS | 201 nM | –

Next, values leading:

Row | hIZCD40L-driven Human B Cell Proliferation EC50 | CHO-hCD40L-driven DC Activation IL-12 EC50 | Binder
16 | 3200 nM | – | BMS3h-217 (other) VL: DIQMTQSPSSLSASVGDRVTITCRASHFIGTLLSWYQQKPGKAPKLLITYGSLLQSGVPSRFSGSGSGTDFTLTISSLQPEDFATYYCGQGVLWPATFGQGTKVEIKR
17 | > 700 nM | – | BMS3h-217-31 (other) VL: DIQMTQSPSSLSASVGDRVTITCRASHFIGTLLSWYQQKPGKAPKLLITYGSLLQSGVPSRFSGSGFGTDFTLTISSLQPEDFATYYCGQEVLWPATFGQGTKVEIKR
18 | 45 nM | – | BMS3h-217-1 (other) VL: NIQMTQSPSSLSASVGDRVTITCRASHFIGTLLTWYQHKPGKAPKLLITYGSLLQSGVPSRFSGSGSGTDFTLTISSLQPEDFATYYCGQGVLWPATFGQGTKVEIKR
19 | 220 nM | – | BMS3h-217-7 (other) VL: DIQMTQSPSSLSASVGDRVTITCRASHFIGSLLSWYQHKPGKAPKLLITYGSLLQSGVPSRFSGSGSGTDFTLTISSLQPEDFATYYCGQGVLWPATFGQGTKVEIKR
20 | 80 nM | > 7700 nM | BMS3h-217-30 (other) VL: DIQMTQSPSSLSASVGDRVTITCRASHFIGTLLSWYQLKPGKAPKLLITYGSWLQSGVPSRFSGSGSGTDFTLTISSLQPEDFATYYCGQGVLWPATFGQGTKVEIKR
21 | 1950 nM | – | BMS3h-217-17 (other) VL: DIQIIQSPSSLSASVGDRVTITCRASHFIGTLLSWYQQKPGKAPKLLITYGSLLQSGVPSRFSGSGSGTDFTLTISSLQPEDFATYYCGQGVLWPPTFGQGTKVEIKR
22 | 380 nM | – | BMS3h-217-9 (other) VL: DIQMTQSPSSLSASVGDRVTITCRASHFIGTLLSWYQHKPGKAPKLLITYGSMLQSGVPSRFSGSGSGTDFTLTISSLQPEDFATYYCGQGVLWPATFGQGTKVEIKR
23 | 11 nM | – | BMS3h-217-2305 (other) VL: DIQMTQSPSSLSASVGDRVTITCRASHFIGSLLSWYQVKPGKAPKLLITWASYLQSGVPSRFSGSGSGTDFTLTISSLQPEDFATYYCGQGVLWPATFGQGTTVEIKR

target: T2, biotinylated human CD40 (BMS) (human, UniProt P25942 21-193, limits assumed, biotinylated (sites not given)); test: BIAcore SPR, immobilised biotinylated human CD40, 1:1 fit;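 note: dAbs passed as doubling dilutions over CD40 chip at 25 °C in HBS-EP running buffer, 300 s dissociation, traces double-referenced against blank flow cell and buffer injection, global Langmuir fit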
T2 construct: Ligand immobilised on the streptavidin BIAcore chip

Row | Kd | koff | kon | Binder
24 | 300 nM | 0.0062 s⁻¹ | 21000 M⁻¹ s⁻¹ | BMS3h-38 (other, domain antibody (dAb): single human VH domain) VH: EVQLLESGGGLVQPGGSLRLSCAASGFTFEEEEMIWVRQAPGKGLEWVSAISGSGGSTYYADSVKGRFTISRDNSKNTLYLQMNSLRAEDTAVYYCAKEPFRFDYWGQGTLVTVSS
25 | 180 nM | 0.004 s⁻¹ | 23000 M⁻¹ s⁻¹ | BMS3h-56 (other, domain antibody (dAb): single human VH domain) VH: EVQLLESGGGLVQPGGSLRLSCAASGFTFRDYEMWWVRQAPGKGLERVSAINPQGTRTYYADSVKGRFTISRDNSKNTLYLQMNSLRAEDTAVYYCAKLPFIFDYWGQGTLVTVSS
26 | 840 nM | 0.0083 s⁻¹ | 9900 M⁻¹ s⁻¹ | BMS3h-41 (other, domain antibody (dAb): single human VH domain) VH: EVQLLESGGGLVQPGGSLRLSCAASGFTFTEYEMIWVRQAPGKGLEWVSSISGNGANTYYADSVKGRFTISRDNSKNTLYLQMNSLRAEDTAVYYCAKEPLRFDYWGQGTLVTVSS
27 | 190 nM | 0.0036 s⁻¹ | 19000 M⁻¹ s⁻¹ | BMS3h-37 (other, domain antibody (dAb): single human VH domain) VH: EVQLLESGGGLVQPGGSLRLSCAASGFTFEWYEMQWVRQAPGKGLEWVSAISGDGYRTYYADSVKGRFTISRDNSKNTLYLQMNSLRAEDTAVYYCAKELGYFDYWGQGTLVTVSS
28 | 240 nM | 0.00038 s⁻¹ | 1600 M⁻¹ s⁻¹ | BMS3h-198 (other, domain antibody (dAb): single human VH domain) VH: EVQLLESGGGLVQPGGSLRLSCAASGFTFAGYEMWWVRQAPGKGLERVSAISGSGGSTYYADSVKGRFTISRDDSKNTLYLQMNSLRAEDTAVYYCAKDPYSFDYWGQGTLVTVSS
29 | 2000 nM | 0.0035 s⁻¹ | 1700 M⁻¹ s⁻¹ | BMS3h-202 (other, domain antibody (dAb): single human VH domain) VH: EVQLLESGGGLVQPGGSLRLSCAASGFTFPTAEMVWVRQAPGKGLEWVSSISASGGSTYYADSVKGRFTISRDNSKNTLYLQMNSLRAEDTAVYYCAKEPVSYVATFDYWGQGTLVTVSS
30 | 180 nM | 0.014 s⁻¹ | 81000 M⁻¹ s⁻¹ | BMS3h-197 (other, domain antibody (dAb): single human VH domain) VH: EVQLLESGGGLVQPGGSLRLSCAASGFTFGSAAMDWVRQAPGKGLEWVSSINDMGSNTYYADSVKGRFTISRDNSKNTLYLQMNSLRAEDTAVYYCAKQGGRFDYWGQGTLVTVSS
31 | 850 nM | 0.17 s⁻¹ | 200000 M⁻¹ s⁻¹ | BMS3h-107 (other, domain antibody (dAb): single human VH domain) VH: EVQLLESGGGLVQPGGSLRLSCAASGFTFSGYDMQWVRQAPGKGLEWVSTISASGVFTYYADSVKGRFTTSRDNSKNTLYLQMNSLRAEDTAVYYCAKYPNRFALNNFDYWGQGTLVTVSS
32 | 930 nM | 0.022 s⁻¹ | 24000 M⁻¹ s⁻¹ | BMS3h-131 (other, domain antibody (dAb): single human V kappa domain) VL: DIQMTQSPSSLSASVGDRVTITCRANSSILWALAWYQQKPGKAPKLLIESSSGLQSGVPSRFSGSGSGTDFTLTISSLQPEDFATYYCVQNAGWPGTFGQGTKVEIKR
33 | 2100 nM | 0.0031 s⁻¹ | 1400 M⁻¹ s⁻¹ | BMS3h-43 (other, domain antibody (dAb): single human VH domain) VH: EVQLLESGGGLVQPGGSLRLSCTASGFTFNMYEMSWVRQAPGKGLEWVSGISRRGFTTYYADSVKGRFTISRDNSKNTLYLQMNSLRAEDTAVYYCAKEPITYAMRYARFDYWGQGTLVTVSS
34 | 350 nM | 0.046 s⁻¹ | 130000 M⁻¹ s⁻¹ | BMS3h-106 (other, domain antibody (dAb): single human VH domain) VH: EVQLLESGGGLVQPGGSLRLSCAASGFTFSTYHMQWVRQAPGKGLEWVSMIDADGLGTYYADSVKGRFTISRDNSKNTLYLQMNSLRAEDTAVYYCAKPGPQFGQFDYWGQGTLVTVSS
